Results as given in publication PMC5993284, “Peptide inhibitors of the anaphase promoting-complex that cause sensitivity to microtubule poison” (PLoS ONE, 2018).
Entries after “also recorded” stand apart in the source; their conditions may differ. Ends that are not written are not given here. * marks the point of attachment. Biotin = O=C1N[C@H]2[C@H](CS[C@H]2CCCCC(=O)*)N1

B1: PQ65: 65 amino acid residue peptide called PQ65 (Cdc20 169–232) (peptide, UniProt P26309 169-232, looked up, fragment)
chain: PPNASPISHLRAQTKIVFKQNVAEACGLDMNKRILQYMPEPPKCSSLRQKSYIMKKRTHYSYQQ

How the values were obtained:
[1] = system: APC/C^Cdh1; test: APC/C^Cdh1 enzyme assay (ubiquitination of 35S-Pds1); type: biochemical, Saccharomyces cerevisiae; conditions: 220 μM peptide; 35S-Pds1 substrate; time course 0-60 minutes; vs buffer; n = 3
Procedure: Full-length, radio-labeled protein purifications were preformed as previously described. ^35S-Pds1 was prepared in a 500 μL IVT/T (In Vitro Transcription/Translation) reaction (Promega, USA), which contained 400 μL rabbit reticulocyte lysate, 20 μL of L-^35S-methionine (PerkinElmer, USA), 10 μg of plasmid DNA, and the remaining volume as nuclease-free ddH2O as recommended by the manufacturer. The reaction mixture was incubated for 2 hours at room temperature and gently mixed every 30 minutes. The reaction was added to pre-equilibrated IgG Sepharose beads (GE Healthcare, USA) in Bio-spin disposable chromatography columns (Bio-Rad, USA) for binding for 2 hours at room temperature. To ensure efficient binding, the beads were re-suspended several times every 30 minutes. After binding, the beads were washed with 5 mL wash buffer, containing 200 mM 4-(2-hydroxyethyl)-1-piperazineethanesulfonic acid (HEPES) at pH 8.0, 150 mM NaCl, 10% (v/v) glycerol, and 1 mM dithiothreitol (DTT). The ^35S-Pds1 was cleaved from the beads using TEV (Tobacco Etch Virus) protease in 1x TEV buffer (Invitrogen, USA) for 2 hours at room temperature, and the mixture was re-suspended several times every 30 minutes to promote efficient cleavage. The elution was collected and concentrated by employing an Amicon Ultra filter column (Millipore, Ireland). The concentrated ^35S-Pds1 was collected in a new tube, and stored at -20 °C.
The production of Cdc20 or Cdh1 was prepared by IVT/T reactions, where 16 μL of rabbit reticulocyte lysate, 20 μM L-methionine, 0.4 μg of plasmid DNA, and a volume of nuclease-free ddH2O for a total volume of 20 μL. This freshly synthesized Cdc20 or Cdh1 protein was used directly in all APC/C assays after a 1-hour synthesis reaction at room temperature. The APC/C was purified for enzyme assays from 1 mL of TAP-tagged Cdc16 yeast extract (SCSY51) where extract was mixed with 50 μL 50:50 slurry magnetic beads (Invitrogen, Norway) for 2 hours at 4 °C. After incubation, the beads were washed with 3 mL APC/C wash buffer (200 mM of HEPES, 150 mM of NaCl and 10% (v/v) of glycerol). APC/C bound to IgG magnetic beads was used directly in the enzyme assays.
APC/C assays were performed by adding the reaction contents in following order: 4.3 μL of QAH buffer, 20 μL of rabbit reticulocyte lysate containing Cdc20 or Cdh1 with or without an additional volume of recombinant checkpoint protein(s) or inhibitor peptides, 2.4 μL ubiquitin aldehyde (Boston Biochem, USA), APC/C, 16 μL pre-charged E1/E2/ATP/ubiquitin mix, and 13.3 μL of ^35S-Pds1 with QAH buffer (20 mM HEPES at pH 8.0, 100 mM NaCl, and 1 mM MgCl2). […]

[2] = system: APC/C - co-factor Cdc20 interaction; test: Co-factor Cdc20 binding to APC/C (35S-Cdc20, APC/C on IgG beads); design: species or system Saccharomyces cerevisiae; conditions: 220 μM peptide, 1 hour, n = 3, vs buffer only
Procedure: (§1) One potential mechanism by which Cdc20-derived peptides and Tyc1 inhibit APC/C may be by blocking and/or disrupting the association between the co-factors Cdc20 and Cdh1 and the APC/C holo-enzyme. To test this hypothesis we produced radio-labeled full-length Cdc20 and Cdh1 co-factors by IVT/T and then incubated them with 220 μM Tyc1, DQ36 or PQ65 and APC/C that had been isolated from mitotic yeast extracts on IgG beads. Unbound peptide was washed away, and the amount of the remaining APC/C bound Cdc20 or Cdh1 was quantified. […] These observations indicate that Tyc1 and Mad2-binding motif peptides inhibit APC/C via a similar mechanism, leading to the disruption of the co-factor-APC/C interaction. This similar mechanism of action predicts that co-ever expression of Tyc1 and a Mad2-binding motif peptide in vivo would likely increase a cell’s sensitivity to microtubule poison.
(§2) Fig 14 Mad2-binding motif peptides and Tyc1 disrupt co-factor binding to APC/C and display an additive phenotype for microtubule poison sensitivity when co-ever expressed. A) ^35S-Methionine radio-labeled full-length Cdc20 or Cdh1 were made by IVT/T and pre-incubated with buffer only as a control, or Tyc1, DQ36 or PQ65 at a final concentration of 220 μM. […] The amount of APC/C-bound co-factor was measured by phosphor-imaging (n = 3). […]

[3] = system: APC/C - co-factor Cdh1 interaction; test: Co-factor Cdh1 binding to APC/C (35S-Cdh1, APC/C on IgG beads); design: species or system Saccharomyces cerevisiae; conditions: 220 μM peptide, 1 hour, n = 3, vs buffer only
Procedure: as §1, §2

Row | Molecule | inhibition of APC/C^Cdh1 activity (in words) [1] | amount of APC/C bound co-factor Cdc20 (in words) [2] | amount of APC/C bound co-factor Cdh1 (in words) [3]
1 | DQ36-mut1: DQ36-mut1 where all 5 RILQY residues were changed to alanine AAAAA (Biotin-DMNKAAAAAMPEPPKCSSLRQKSYIMKKRTHYSYQQ) | displayed a similar loss in the ability to inhibit this APC/C^Cdh1 enzyme activity relative to wild type DQ36 |  | 
2 | B1 | observed to inhibit APC/C^Cdh1; also recorded: a significant level of APC/C^Cdh1 inhibition was observed | caused a significant decrease in the amount of APC/C bound co-factor Cdc20 and Cdh1 | caused a significant decrease in the amount of APC/C bound co-factor Cdc20 and Cdh1
